# How the values were obtained:
# [1] = molecular target: human TREM-1 on cells (BWZ/hTREM-1 reporter cells, PBMCs, macrophages, neutrophils, monocytes, synovial tissue cells) (human) (UniProt Q9NP99); test: cell-based or functional assay
# [2] = molecular target: human TREM-1 (hTREM-1 protein, SPR analyte of Examples 9 and 11) (human) (UniProt Q9NP99); test: SPR, mAb captured, hTREM-1 analyte (Example 11)
# [3] = molecular target: cynomolgus TREM-1 (cTREM-1 protein, SPR analyte of Examples 9 and 11) (cynomolgus monkey); test: SPR, mAb captured, cTREM-1 analyte (Example 11)
# [4] = molecular target: T1, cynomolgus monkey TREM-1 on cells (reporter cells, PBMCs, macrophages) (cynomolgus monkey); test: cell-based or functional assay
# T1 sequence: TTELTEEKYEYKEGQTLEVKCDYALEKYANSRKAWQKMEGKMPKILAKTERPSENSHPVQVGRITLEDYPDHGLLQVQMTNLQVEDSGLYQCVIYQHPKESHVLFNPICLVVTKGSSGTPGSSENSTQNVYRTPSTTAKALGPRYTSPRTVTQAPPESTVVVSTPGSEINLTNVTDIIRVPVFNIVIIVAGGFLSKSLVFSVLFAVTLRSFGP
# Chain of human PGLYRP1 (O75594 22-196 limits assumed): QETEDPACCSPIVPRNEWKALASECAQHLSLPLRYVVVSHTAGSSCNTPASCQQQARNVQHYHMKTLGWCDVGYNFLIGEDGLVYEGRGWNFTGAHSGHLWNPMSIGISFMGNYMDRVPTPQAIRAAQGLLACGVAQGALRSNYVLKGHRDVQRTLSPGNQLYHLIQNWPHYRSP
# Chain of human TREM-1 (hTREM-1 protein, SPR analyte of Examples 9 and 11) (human) (Q9NP99 21-200 limits assumed): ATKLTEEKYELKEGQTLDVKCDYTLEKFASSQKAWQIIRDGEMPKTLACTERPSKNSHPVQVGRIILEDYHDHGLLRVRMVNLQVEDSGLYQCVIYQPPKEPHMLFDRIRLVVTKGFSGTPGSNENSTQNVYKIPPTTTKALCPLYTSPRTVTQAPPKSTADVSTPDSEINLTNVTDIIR
# Chain of human TREM-1 on cells (BWZ/hTREM-1 reporter cells, PBMCs, macrophages, neutrophils, monocytes, synovial tissue cells) (human) (Q9NP99 21-234 limits assumed): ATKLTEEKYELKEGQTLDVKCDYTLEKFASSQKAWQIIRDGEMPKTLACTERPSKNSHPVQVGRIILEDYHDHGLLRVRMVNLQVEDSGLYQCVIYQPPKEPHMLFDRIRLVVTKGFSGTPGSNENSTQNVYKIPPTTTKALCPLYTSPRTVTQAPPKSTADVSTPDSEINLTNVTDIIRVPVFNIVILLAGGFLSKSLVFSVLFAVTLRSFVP
substance,measurement,setting,value
"TREM-37 (Biolegend, cat. no. 316102) (antibody)","% remaining activity at 0.003 µg/ml, BWZ/hTREM-1 reporter assay",[1],98%
same,"% remaining activity at 0.03 µg/ml, BWZ/hTREM-1 reporter assay",[1],103%
same,"% remaining activity at 0.3 µg/ml, BWZ/hTREM-1 reporter assay",[1],90%
same,"Luminescence × 10E6, BWZ/hTREM-1 reporter cells + activated neutrophils",[1],6.1e+06 luminescence
same,"normalised reporter signal, antibody at 1 µg/ml (FIG. 3)",[1],> 1
same,Kd,[2],0.8 nM
Sigma #SAB1405121 (clone 3F5) (antibody),"% remaining activity at 0.003 µg/ml, BWZ/hTREM-1 reporter assay",[1],104%
same,"% remaining activity at 0.03 µg/ml, BWZ/hTREM-1 reporter assay",[1],101%
same,"% remaining activity at 0.3 µg/ml, BWZ/hTREM-1 reporter assay",[1],97%
"MAB1278 (R&D Systems, cat. no. MAB1278) (antibody)","BWZ/hTREM-1 reporter signal, RA synovial fluid, mAb 0.1 ug/ml, assay 1",[1],829000
same,"BWZ/hTREM-1 reporter signal, RA synovial fluid, mAb 0.1 ug/ml, assay 2",[1],691000
same,"BWZ/hTREM-1 reporter signal, RA synovial fluid, mAb 1 ug/ml, assay 1",[1],1.19e+06
same,"BWZ/hTREM-1 reporter signal, RA synovial fluid, mAb 1 ug/ml, assay 2",[1],1.02e+06
same,"BWZ/hTREM-1 reporter signal, RA synovial fluid, mAb 10 ug/ml, assay 1",[1],1.08e+06
same,"BWZ/hTREM-1 reporter signal, RA synovial fluid, mAb 10 ug/ml, assay 2",[1],1.05e+06
same,"IL-6, M2 macrophages on platebound mAb 2 µg/ml, Avg",[1],412 pg/mL
same,"IL-6, M2 macrophages on platebound mAb 6 µg/ml, Avg",[1],877 pg/mL
same,"IL-6, M2 macrophages on platebound mAb 20 µg/ml, Avg",[1],1350 pg/mL
same,"Luminescence × 10E6, BWZ/hTREM-1 reporter cells + activated neutrophils",[1],1e+07 luminescence
same,"TNFa, M2 macrophages on platebound mAb 2 µg/ml, Avg",[1],2000 pg/mL
same,"TNFa, M2 macrophages on platebound mAb 6 µg/ml, Avg",[1],6450 pg/mL
same,"TNFa, M2 macrophages on platebound mAb 20 µg/ml, Avg",[1],7750 pg/mL
same,"induction of NFAT-driven LacZ production, 1-10 µg/ml plate bound antibody",[1],40 fold
same,"induction of reporter luminescence, platebound antibody (FIG. 2)",[1],32 fold
same,"normalised reporter signal, antibody at 1 µg/ml (FIG. 3)",[1],> 1
"TREM-26 (Biolegend, cat. nos. 314902 and 314907) (antibody)",Kd,[3],4 nM
same,"% remaining cyno TREM-1 activity at 0.74 ug/ml, reporter assay",[4],104%
same,"% remaining cyno TREM-1 activity at 20 ug/ml, reporter assay",[4],87.7%
same,"% remaining activity at 0.003 µg/ml, BWZ/hTREM-1 reporter assay",[1],100%
same,"% remaining activity at 0.03 µg/ml, BWZ/hTREM-1 reporter assay",[1],124%
same,"% remaining activity at 0.3 µg/ml, BWZ/hTREM-1 reporter assay",[1],108%
same,"Luminescence × 10E6, BWZ/hTREM-1 reporter cells + activated neutrophils",[1],9.9e+06 luminescence
same,"normalised reporter signal, antibody at 1 µg/ml (FIG. 3)",[1],> 1
same,Kd,[2],0.9 nM
"SC98Z12 (Santa Cruz Biotechnology, sc-80394, clone 98Z12) (antibody)","% remaining activity at 0.003 µg/ml, BWZ/hTREM-1 reporter assay",[1],120%
same,"% remaining activity at 0.03 µg/ml, BWZ/hTREM-1 reporter assay",[1],134%
same,"% remaining activity at 0.3 µg/ml, BWZ/hTREM-1 reporter assay",[1],131%
same,Kd,[2],30 nM
type II PGLYRP1 on transiently transfected HEK cells (ligand),"TNF-a release, RA synovial tissue cells, IgG4 + Type II cells, 1 × 10^4 HEK cells",[1],95 pg/mL
same,"TNF-a release, RA synovial tissue cells, IgG4 + Type II cells, 1 × 10^5 HEK cells",[1],121 pg/mL
same,"TNF-a release, RA synovial tissue cells, IgG4 + Type II cells, 3 × 10^3 HEK cells",[1],54.6 pg/mL
same,"TNF-a release, RA synovial tissue cells, IgG4 + Type II cells, 3 × 10^3 HEK cells (second column so headed)",[1],57.9 pg/mL
same,"TNF-a release, RA synovial tissue cells, IgG4 + Type II cells, 3 × 10^4 HEK cells",[1],114 pg/mL
human PGLYRP1 (from UniProt O75594 22-196) (ligand),"TNF-α, cyno M2 macrophages, PGN + PGRP-S, Donor 1 Avg",[4],295 pg/mL
same,"TNF-α, cyno M2 macrophages, PGN + PGRP-S, Donor 2 Avg",[4],307 pg/mL
same,"GM-CSF, RA synovial tissue cells, PGN + PGLYRP1",[1],616 pg/mL
same,"IL-1beta, RA synovial tissue cells, PGN + PGLYRP1",[1],3770 pg/mL
same,"IL-6, RA synovial tissue cells, PGN + PGLYRP1",[1],4190 pg/mL
same,"IL-8, RA synovial tissue cells, PGN + PGLYRP1",[1],5510 pg/mL
same,"MCP-1, RA synovial tissue cells, PGN + PGLYRP1",[1],471 pg/mL
same,"MIP-1beta, RA synovial tissue cells, PGN + PGLYRP1",[1],4400 pg/mL
same,"TNFa, normoxic M2 macrophages, PGN-BS + PGLYRP1, Donor 1 Avg",[1],728 pg/mL
same,"TNFa, normoxic M2 macrophages, PGN-BS + PGLYRP1, Donor 2 Avg",[1],771 pg/mL
same,"TNFalpha, RA synovial tissue cells, PGN + PGLYRP1",[1],1440 pg/mL
Sigma #WH0054210M4 (clone 2E2) (antibody),"% remaining activity at 0.003 µg/ml, BWZ/hTREM-1 reporter assay",[1],98%
same,"% remaining activity at 0.03 µg/ml, BWZ/hTREM-1 reporter assay",[1],104%
same,"% remaining activity at 0.3 µg/ml, BWZ/hTREM-1 reporter assay",[1],86%
same,Kd,[2],20 nM

# Reference: patent publication US20210253697A1
